One block for each binder: values may come before it.
B3: Rad51 (natural protein)
chain: MADTEVEMQVSAADTNNNENGQAQSNYEYDVNVQDEEDEAAAGPMPLQMLEGNGITASDIKKIHEAGYYTVESIAYTPKRQLLLIKGISEAKADKLLGEASKLVPMGFTTATEYHIRRSELITITTGSKQLDTLLQGGVETGSITELFGEFRTGKSQICHTLAVTCQLPIDMGGGEGKCLYIDTEGTFRPVRLLAVADRYGLNGEEVLDNVAYARAYNADHQLELLQQAANMMSESRFSLLVVDSCTALYRTDFSGRGELSARQMHLARFMRTLQRLADEFGIAVVITNQVVAQVDGISFNPDPKKPIGGNILAHSSTTRLSLRKGRGEQRICKIYDSPCLPESEAIFAINSDGVGDPKEIIAPV

Tests used:
[1] = target: T1, Sfr1, wild type (S. pombe, UniProt Q9USV1 1-299); assay: SEC
T1 sequence: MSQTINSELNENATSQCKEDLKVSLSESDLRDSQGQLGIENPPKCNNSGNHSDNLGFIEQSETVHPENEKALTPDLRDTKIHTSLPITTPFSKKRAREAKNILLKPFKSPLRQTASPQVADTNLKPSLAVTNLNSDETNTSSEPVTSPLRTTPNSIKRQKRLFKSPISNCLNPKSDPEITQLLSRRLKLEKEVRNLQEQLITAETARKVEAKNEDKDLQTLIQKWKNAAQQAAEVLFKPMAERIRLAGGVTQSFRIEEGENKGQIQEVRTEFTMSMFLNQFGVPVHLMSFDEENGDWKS

[2] = target: B3; assay: pull-down
[3] = target: T2, Swi5-Sfr1 complex, wild type (S. pombe, UniProt Q9USV1;Q9UUB7); assay: pull-down
T2 sequence 1: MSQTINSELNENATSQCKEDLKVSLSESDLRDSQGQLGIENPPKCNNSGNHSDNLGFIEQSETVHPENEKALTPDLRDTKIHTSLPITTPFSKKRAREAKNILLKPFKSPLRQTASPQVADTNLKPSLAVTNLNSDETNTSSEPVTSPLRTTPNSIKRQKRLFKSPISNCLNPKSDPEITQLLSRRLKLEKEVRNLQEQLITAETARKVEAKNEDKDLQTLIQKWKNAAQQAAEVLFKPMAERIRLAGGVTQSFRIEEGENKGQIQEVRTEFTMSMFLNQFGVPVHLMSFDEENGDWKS
T2 sequence 2: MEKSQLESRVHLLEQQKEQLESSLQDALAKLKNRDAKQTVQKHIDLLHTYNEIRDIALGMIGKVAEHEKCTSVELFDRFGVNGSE

binding result [1]: binds
B1: Swi5 (natural protein)
chain: MEKSQLESRVHLLEQQKEQLESSLQDALAKLKNRDAKQTVQKHIDLLHTYNEIRDIALGMIGKVAEHEKCTSVELFDRFGVNGSE

fold reduction in co-precipitation with Rad51 against wild type [2]: ~5 fold
B2: Swi5-Sfr1 phosphomimetic mutant complex (complex)
chain 1: MSQTINSELNENATSQCKEDLKVDLSESDLRDSQGQLGIENPPKCNNSGNHSDNLGFIEQSETVHPENEKALDPDLRDTKIHTSLPITTPFSKKRAREAKNILLKPFKDPLRQTADPQVADTNLKPSLAVTNLNSDETNTSSEPVTSPLRTTPNSIKRQKRLFKDPISNCLNPKSDPEITQLLSRRLKLEKEVRNLQEQLITAETARKVEAKNEDKDLQTLIQKWKNAAQQAAEVLFKPMAERIRLAGGVTQSFRIEEGENKGQIQEVRTEFTMSMFLNQFGVPVHLMSFDEENGDWKS
chain 2: MEKSQLESRVHLLEQQKEQLESSLQDALAKLKNRDAKQTVQKHIDLLHTYNEIRDIALGMIGKVAEHEKCTSVELFDRFGVNGSE

Binder: B3
binding result [3]: binds

From publication doi:10.1101/2023.03.23.533938 (bioRxiv, 2023)
